Experimental data from US20200368361A1 (Regeneron, published 2020).

T1: full length monkey MSR1 on HEK293.mfMSR1 cells (Macaca fascicularis, UniProt A0A2K5UWE2 1-451)
T1 construct: whole, on cells
T1 sequence: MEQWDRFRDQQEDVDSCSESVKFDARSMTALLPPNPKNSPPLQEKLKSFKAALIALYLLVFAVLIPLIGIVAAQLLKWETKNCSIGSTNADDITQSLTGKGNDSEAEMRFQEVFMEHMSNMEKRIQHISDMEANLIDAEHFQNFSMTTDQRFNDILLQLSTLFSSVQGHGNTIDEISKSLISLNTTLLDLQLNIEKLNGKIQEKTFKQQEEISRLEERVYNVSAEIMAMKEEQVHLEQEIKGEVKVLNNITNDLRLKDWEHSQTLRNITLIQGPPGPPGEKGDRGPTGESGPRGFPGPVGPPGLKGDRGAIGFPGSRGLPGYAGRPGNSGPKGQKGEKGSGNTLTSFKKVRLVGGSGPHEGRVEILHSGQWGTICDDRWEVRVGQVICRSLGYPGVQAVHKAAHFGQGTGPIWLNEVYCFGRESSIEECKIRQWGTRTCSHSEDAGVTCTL

T2: full length human MSR1 with a C-terminal Myc tag on HEK293.Myc.hMSR1 cells (human, UniProt P21757 1-451)
T2 construct: whole, on cells
T2 sequence (looked up): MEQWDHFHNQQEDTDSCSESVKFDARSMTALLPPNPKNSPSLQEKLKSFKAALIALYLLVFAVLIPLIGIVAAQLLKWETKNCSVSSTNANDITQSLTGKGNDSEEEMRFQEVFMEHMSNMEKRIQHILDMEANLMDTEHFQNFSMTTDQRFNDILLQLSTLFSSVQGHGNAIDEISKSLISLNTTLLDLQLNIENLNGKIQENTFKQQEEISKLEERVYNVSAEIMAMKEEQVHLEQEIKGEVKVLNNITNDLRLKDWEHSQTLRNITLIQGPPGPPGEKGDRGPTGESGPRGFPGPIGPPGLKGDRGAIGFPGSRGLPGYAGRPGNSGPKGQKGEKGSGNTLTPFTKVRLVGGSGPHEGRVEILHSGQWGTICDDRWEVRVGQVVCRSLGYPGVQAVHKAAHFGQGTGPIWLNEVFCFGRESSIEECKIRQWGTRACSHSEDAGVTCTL

T3: mouse MSR1 on RAW264.7 cells (mouse, UniProt P30204 1-458)
T3 construct: whole, on cells
T3 sequence (looked up): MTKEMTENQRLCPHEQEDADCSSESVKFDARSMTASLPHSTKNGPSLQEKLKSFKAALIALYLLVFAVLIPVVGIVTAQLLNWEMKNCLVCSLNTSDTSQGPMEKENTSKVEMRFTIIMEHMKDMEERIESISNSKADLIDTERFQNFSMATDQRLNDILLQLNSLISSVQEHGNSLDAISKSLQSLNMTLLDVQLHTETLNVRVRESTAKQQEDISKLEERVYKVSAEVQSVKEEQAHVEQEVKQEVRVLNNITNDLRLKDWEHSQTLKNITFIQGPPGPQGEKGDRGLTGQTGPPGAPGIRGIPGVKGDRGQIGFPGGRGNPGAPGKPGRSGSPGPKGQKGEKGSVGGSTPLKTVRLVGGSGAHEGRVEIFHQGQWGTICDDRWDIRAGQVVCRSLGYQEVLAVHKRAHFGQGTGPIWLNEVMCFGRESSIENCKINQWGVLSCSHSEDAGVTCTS


Columns and labels:
[1] = target: T1, full length monkey MSR1 on …; test: ECL cell binding, HEK293.mfMSR1
Description: All cells were washed once with 1×PBS with Ca²⁺/Mg²⁺ and counted with a Cellometer™ Auto T4 cell counter (Nexcelom Bioscience). Approximately 1.0×10⁴ cells were seeded separately onto 96-well carbon electrode plates [MULTI-ARRAY high bind plate, Meso Scale Diagnostics] and incubated for 1 hour at 37° C. Non-specific binding sites were then blocked by 2% BSA (w/v) in PBS with Ca²⁺/Mg²⁺ for 1 hour at room temperature. THP-1 cells were pre-incubated for 0.5 hours at room temperature in sample dilution buffer with: 1) 1 mg/mL Fc receptor block reagents to block Fc gamma receptors on THP-1 cell surface [whole molecule human IgG (Jackson Immunoresearch, Cat #009-000-003) for wells being tested with anti-MSR1-mFc antibodies or 2) whole molecule mIgG (Jackson Immunoresearch, Cat #015-000-003) for wells being tested with anti-MSR1-hFc antibodies. Antibody binding on HEK293.Myc.hMSR1, HEK293.mfMSR1 and HEK293 cells was tested without Fc receptor block reagents. […] Plates were then washed to remove unbound antibodies an AquaMax2000 plate washer with a cell washing head (MDS Analytical Technologies). […] Plates were washed and developed with Read Buffer (Meso Scale Diagnostics, Cat #R92TD-2) according to manufacturer's recommended procedure and luminescent signals were recorded with a SECTOR Imager 600 (Meso Scale Diagnostics). Luminescence intensity, measured in relative light units (RLU), was recorded to indicate the binding intensity of each antibody at the range of concentrations.

[2] = target: T2, full length human MSR1 with a …; test: ECL cell binding, HEK293.Myc.hMSR1
[3] = target: T3, mouse MSR1 on RAW264.7 cells; test: flow cytometry, RAW264.7 cells, 10 ug/mL;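 also: antibodies bound to RAW264.7 cells for 30 min on ice after Fc block with mouse IgG, S/N is MFI relative to unstained cells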
Description: To block binding to Fc receptors, RAW264.7 cells were incubated for 30 minutes at 4° C. with 500 μg/mL mouse IgG (Jackson ImmunoResearch, Cat #015-000-003) diluted in staining buffer, while B16F10.9 cells remained in staining buffer. Following Fc receptor blocking, 10 μg/mL of anti-MSR1 antibodies or an isotype control antibody were added to the cells and were subsequently incubated for 30 minutes on ice. […] The signal to noise (S/N) was determined by calculating the ratio of the anti-MSR1 antibodies or the control antibodies MFI to the unstained sample MFI (Table 16).

binding signal ratio to isotype control (11 nM) [1] [fold]	binding signal ratio to isotype control (11 nM) [2] [fold]	MFI [3]	S/N [3]	Binder
27	78			H2aM21229N (antibody, mouse IgG2a, V domains shown, mouse IgG2a Fc) VH: EVQLVESGGGLVKPGGSLRLSCAASGFTFSRYSMNWVRQAPGKGLEWVSSISSSSSYIYYGDTVKGRFTISRDNAKKSLYLQMNSLRAEDTAVYYCVRDRGQLVLYFDYWGQGTLVTVSS VL: DIQMTQSPASLSTSIRDRVTITCRASLSISSFLNWFQQRPGKAPKLLIYVASNLQSGVPSRFSDSGSGTDFTLTISSLQPEDFATYYCQQNYSTPPITFGQGTRLEIK
20	22	3270	1	H1H27739P-N297Q (antibody, human IgG1, V domains shown, human IgG1 Fc with N297Q) VH: EVQLVESGGGLVQPGGSLRLSCTASGFTFSSYAMSWVRQAPGKGLEWVSAISGTGSSTYFTDSVKGRFAISRDNSKNTLYLQMNSLRAEDTAVYYCAKDGEWLSTVTLFDYWGQGTLVTVSS VL: EIVMTQSPATLSVSPGERATLSCRASQSVSSNLAWYQQKPGQAPRLLIYGASTRATGIPARFSGSGSGTDFTLTISSLQSEDFALYYCQQYFIWPPHPTFGPGTKVDIKR
6	17	3480	1	H1H27729P-N297Q (antibody, human IgG1, V domains shown, human IgG1 Fc with N297Q) VH: QVQLVESGGGLVKPGGSLRLSCAASGFIFSDYYMSWIRQAPGKGLEWVSYISSSGTTIYGDSVKGRFTMSRDNAKNSLYLQMNSLRAEDTAVYYCARNYALFDYWGQGTLVTVSS VL: DIQMTQSPSSLSASVGDRVTITCQASQDISKYLNWYQQKPGKAPKLLIYYTSNLETGVPSRFSGSGSGTDFTFTISSLQPEDIATYYCHQSDYLPFTFGPGTKVDIKR
28	40	4780	1	H1H27734P-N297Q (antibody, human IgG1, V domains shown, human IgG1 Fc with N297Q) VH: EVQLVESRGGLVQPGGSLRLSCAASGFTFSSYAMSWVRQAPGKGLEWVSAISGSGGSTFYADSVKGRFTISRDNSKNTVYLQMNSLRAEDTAVYYCAKALVLRFLEWLGDYWGQGTLVTVSS VL: DIQMTQSPSTLSASVGDRVTITCRASQSISSWLAWFQQKPGKAPKLLIYKASSLESGVPSRFSGSGSGTEFTLTISSLQPDDFATYYCQQYKSYWTFGQGTKVEIKR
1	9			H1xH29282P2 (antibody, V domains shown, prefix H1xH not explained for the anti-MSR1 antibodies) VH: EVQLVESGGGLVQPGGSLRLSCAASGFTFSTYAMSWVRQAPGKGLEWVSTISGRSDITYFADSVKGRFTVSRDNSKTTLYLQMNSLRAEDTAVYYCATDDDLPLDYWGQGTLVTVSS VL: not shown
43	48	3510	1	H1H27731P-N297Q (antibody, V domains shown, human IgG1 Fc with N297Q) VH: QLQLQESGPGLVKPSETLSLTCTVSGGSISRISYYWGWIRQPPGKGLEWIGSIYDSGSTYYNPSLKSRVTISIDTSKNQFSLKLSSVTAADTAVYYCVRYSSSSAFAFDYWGQGTLVTVSS VL: DIQMTQSPSSVSASVGDRVTITCRASQGISSWLAWYQQKPGKAPKLLIYAASSLQSGVPSRFSGSGSGTDFTLTISSLQPEDFATYYCQQANSFPFTFGPGTKVDIKR
21	26	3630	1	H1H27747P-N297Q (antibody, human IgG1, V domains shown, human IgG1 Fc with N297Q) VH: QVQLVESGGAVVQPGRSLRLSCAASGFTFSYYGMHWVRQAPGKGLEWVAVISYDGSKKYYADSVKGRFTISRDNSKNTLYLQMNSLRAEDTAVYYCAKDLTVDFYYGMDVWGQGTTVTVSS VL: DIQMTQSPSSVSASVGDRVTITCRASQGISSWLAWYQQKPGKAPKLLIYATSSLQSGAPSRFSGSGSGTDFTLTISSLQPEDFATYFCQQANSFPYTFGQGTKLEIKR
49	63	3820	1	H1H27751P-N297Q (antibody, human IgG1, V domains shown, human IgG1 Fc with N297Q) VH: EVQLVESGGGLVQPGGSLRLSCAASGFTFSNYAMHWVRQAPGKGLEYVSAISSNGGSTYYADSVKGRITISRDNSKNTLYLQMGSLRAEDMAVYYCARGRPYYYYFGMDVWGQGTTVTVSS VL: not shown
